Changes are numbered by the printed parent chain.

We go through 16 molecules from publication PMC10720262 (2023).

The experiment deals with PfCSP full length (Plasmodium falciparum (isolate NF54), UniProt P19597). Nature of the experiment: ELISA AUC.
Chain of PfCSP full length (P19597 20-375): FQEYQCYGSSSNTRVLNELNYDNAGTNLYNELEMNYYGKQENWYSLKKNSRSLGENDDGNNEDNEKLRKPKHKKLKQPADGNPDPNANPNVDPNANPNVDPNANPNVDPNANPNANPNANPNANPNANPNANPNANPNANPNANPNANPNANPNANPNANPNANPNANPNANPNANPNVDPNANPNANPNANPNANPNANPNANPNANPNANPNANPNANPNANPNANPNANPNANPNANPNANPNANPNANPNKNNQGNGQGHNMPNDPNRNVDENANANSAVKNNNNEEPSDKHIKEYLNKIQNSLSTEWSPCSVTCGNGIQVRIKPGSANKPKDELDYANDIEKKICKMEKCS

B1: CL-510427 (antibody, V domains shown)
VH: QVQLVESGGGVVQPGRSLRLSCAASGFTFSNYGMHWVRQAPGKGLEWVAVIWYDGSKEDYADSVKGRLTISRDNSKNTLYLQMNSLRAEDTAVYYCARDGDSRGWYAFDYWGQGTLVTVSS
VL: not shown
modifications: peptides N-terminally acetylated and C-terminally amidated
The molecule B1 returned a binding score of 2.39.

B2: CL-512023 (antibody, V domains shown)
VH: QVQLMESGGGVVQPGRSLRLSCEASGFTFSNSGMHWVRQAPGKGLEWVAIIWYDGSNRYYVDSVKGRFTISRDNSKNTLYLQMNSLRAEDTAVYYCARDGGNRYGYGWFDSWGQGTLVTVSS
VL: QSVLTQPPSVSGAPGQRVTISCTGSSSNIGAGYDVHWYQQLPGTAPKLLIYGNTNRPSGVPDRFSGSKSGTSASLAITGLQAEDEADYYCQSYDSSLGGSRRVFGGGTKLTVL
modifications: peptides N-terminally acetylated and C-terminally amidated
Regarding B2, the binding score was determined as 2.59.

B3: CL-514716 (antibody, V domains shown)
VH: QIQLVESGGGVVQPGRSLRLSCAASGFTFSTYGMHWVRQAPGKGLEWVAVIWYDGSNKYYADSVQGRFTISRDNSKNTLYLQMNSLRAEDTAIYYCTTVGPIPFDYWGQGTLVTVSS
VL: DIVMTQTPLSSPVILGQPASISCRSSQSLVHSSGNTYLSWLQQRPGQPPRLLIYKTFKRLSGVPDRFSGSGAGTDFTLKISRVEAEDVGVYYCLQSTQFPLTFGGGTKVEIK
modifications: peptides N-terminally acetylated and C-terminally amidated
As for B3, the binding score was 1.75.

B4: CL-510458 (antibody, V domains shown)
VH: QVQLVESGGGVVQPGRSLRLSCAASGFTFNNYGMHWVRQAPGKGLEWVAVIWYDGSNKFHADSVKGRFTISRDNSKNTLYLQMNSLRAEDTALYYCARVYYYDSGSYLDYWGQGTLVTVSS
VL: DIQMTQSPSSVSASVGDRVTITCRASQGISRWLAWYQQKPGKAPKLLIYAASSLQSGVPSRFSGSGSGTDFTLTISSLQPEDFATYCCQQANNFPWTFGQGTKVEIK
modifications: peptides N-terminally acetylated and C-terminally amidated
For B4, the binding score was 2.

B5: CL-460619 (antibody, V domains shown)
VH: QVQLVESGGGVVQPGRSLRLSCAASGFTFDYYGMHWVRQAPGKGLEGVAIIWYDGSNKFYADSVKGRFTISRDNSKNTLYLQMTSLRVEDTAVYYCARDGRIGDPGPYFDYWGQGTLVTVSS
VL: EIVMTQSPATLSVSPGERPTLSCRASQSVSSKLAWYQQKPDQAPRLLIYGASTRATGIPPRFSGSGSGTEFTLTIDSLQSEDFAVYYCQQYHKWWTFGQGTKVEIK
modifications: peptides N-terminally acetylated and C-terminally amidated
B5 registered a binding score of 2.2.

B6: CL-513069 (antibody, V domains shown)
VH: QVQLVESGGGVVQPGKSLRLSCEASGFTFSNYGMHWVRQAPGKGLDWVAIIWHDGGNKFYADSVRGRFTISRDNSKNTLFLQMNSLRAEDSAVYYCARVFDFRDSCYTMDVWGQGTTVTVSS
VL: DIQMTQSPSTLSASVGDRVTITCRASQSISSWLAWYQQKPGKAPKLLIYKASSLESGVPSRFSGSGSGTEFSLTISSLQPDDFATYYCQQYTRYWTFGQGTRVEIQ
modifications: peptides N-terminally acetylated and C-terminally amidated
Turning to B6, the binding score came out at 2.2.

B7: CL-512011 (antibody, V domains shown)
VH: QVQLVESGGGVVQPGRSLRLSCVTSGFTFSSFGMHWVRQAPGKGLEWVALIWYDGSHKFYADSLTGRFTISRDNSKNTLYLQMNSLRVEDTAVYYCARAHAVTTANDKYGTDVWGQGTTVNVSP
VL: B6 VL with Q38H, K42N, S53N, S72T, Y87F, T92N, R93S, R102K, I105V, Q106K
modifications: peptides N-terminally acetylated and C-terminally amidated
Molecule B7 had a binding score of 2.5.

B8: CL-512275 (antibody, V domains shown)
VH: B7 VH with R16G, L18F, V23E, S31N, A101S, N121T
VL: B6 VL with Q38H, K42R, V58I, S72T, Y87F, T92N, R93S, R102K, Q106K
modifications: peptides N-terminally acetylated and C-terminally amidated
The molecule B8 yielded a binding score of 2.54.

B9: Ky15.5 (antibody, V domains shown)
VH: QVQMVASGGGVVQPGRSLRLSCAVSGFTFRNFGMHWVRQDPGRGLEWVAIIWYDGSYEFYADSVKGRFTISRDNSKNTLYLQMNSLRAEDTAVYYCARSYGSLTGDETKYGMDVWGQGTTVTVSS
VL: B6 VL with Y36F, S72T, T92K, R93N, R102K, Q106K
modifications: peptides N-terminally acetylated and C-terminally amidated
Consider B9, for which the binding score was determined as 2.4.

B10: CL-510487 (antibody, V domains shown)
VH: QVQLEESGGGVVQPGRSLRLSCTATGFTFSNYGMHWVRQAPGRGLEWVGVIWYDGSNKFYVDSVKGRFTISRDNSKNTLYLQMNSLRAEDTAVYYCARDGGYYGSGSYWWFDSWGQGTLVTVSS
VL: B6 VL with S56R, S72T, T92N, W95C, T96S, R102K, V103L, Q106K
modifications: peptides N-terminally acetylated and C-terminally amidated
With B10, the binding score was found to be 1.83.

B11: CL-511026 (antibody, V domains shown)
VH: QVQLVESGGGVVQPGRSLRLSCAASGFTFSNFGMHWVRQAPDRGLEWVSIIWYDGSNKFYADSVKGRFTISRDNSKNTLFLQMDSLRAEDTAVYYCAKAEMRTSDYYNYGMDVWGQGTTVTVSS
VL: B6 VL with G68A, S72T, S76R, T92Y, R93S, R102K, Q106N
modifications: peptides N-terminally acetylated and C-terminally amidated
B11 yielded a binding score of 2.08.

B12: CL-460369 (antibody, V domains shown)
VH: QVQLVESGGGVVQPGRSLRLSCAASGFTFSNYGMHWVRQAPGKGLEWVGIIWYDGSNKYYIDSVKGRFTISRDNSRNTLYLQINSLRAEDTAVYYCARDGGWNDDYYYVMDVWGQGTTVTVSS
VL: DIVMTQSPDSLAVSLGEGATINCKSSQSVLYSSNNKNYLAWYQQKPGQPPKVLIYWASIRESGVPDRFSGSGSGTDFTLTISSLQAEDVAVYYCQQYYSMCSFGQGTKLEIK
modifications: peptides N-terminally acetylated and C-terminally amidated
B12 gave a binding score of 2.3.

B13: CL-509880 (antibody, V domains shown)
VH: QVQLVESGGGVVQPGRSLRLSCAASGFTFSNSGMHWVRQAPGKGLEWVAVIWYDGSNKYYADSVKGRFTVTRDNSKNTLYLQMNSLRAEDTAVYYCVRAYYGSGSYHFKYGMDVWGQGTTVTVSS
VL: not shown
modifications: peptides N-terminally acetylated and C-terminally amidated
B13 registered a binding score of 1.97.

B14: CL-445901 (antibody, V domains shown)
VH: QVQLVESGGGVVQPGRSLRLSCAASGFTFSNYGIHWVRQAPGKGLEWVALIWFNGNNKFYADSVEGRFTVSRDNSKNTLYLQLNSLRAEDTAVYYCARAYYFASGNYMDYWGQGTLVTVSS
VL: DIQMTQSPSSVSASMGDRVTITCRASQDISSSLAWYQQKPGKAPILLISFASSLHSGVPSRFSGSGSGTDFTLTISSLQPEDFATYSCQQANSFPWTFGQGTRVEVK
modifications: peptides N-terminally acetylated and C-terminally amidated
B14 had a binding score of 2.4.

B15: CL-462788 (antibody, V domains shown)
VH: QVQLVESGGGVVQPGRSLRLSCAASGFTFRNYGMHWVRQAPGKGLEWVAIIWYDGSYKFYADSVKGRFTISRDNSKNTLYLQMNSLRAEDTAMYYCARDDALELRSFDIWGQGTMVTVSS
VL: DVVMTQSPLSLPVTLGQPASISCRSSQSLVYSDENTYLSWFQQRPGQSPRRLIYKISNRDSGVPDRFSGSGSGTDFTLKISRVEAEDVGVYYCMQGTHWPRTFGQGTEVEIK
modifications: peptides N-terminally acetylated and C-terminally amidated
B15 displayed a binding score of 2.3.

B16: CL-509326 (antibody, V domains shown)
VH: QVYLVESGEGVVQPGRSLRLSCAASGFTFSNYGMHWVRQAPGKGLEWVAVIWYNGNNKFYADSVKGRFTISRDNSKNTLFLQMNSLRAEDTAVYFCARSGYSRSSYFDYWGQGTLVTVSS
VL: QSVLTQPPSVSGAPGQRVTISCTGSSSNIGAVYDVHWYQQLPGTAPKLLIYGNTNRPSGVPDRFSGSQSGTSASLAITGLQAEDEADYYCQSYDSSLSGSVFGGGTKLTVL
modifications: peptides N-terminally acetylated and C-terminally amidated
In the case of B16, the binding score turned out to be 2.19.
